From article PMC6824560, “Insight into the relationship between aryl-hydrocarbon receptor and β-catenin in human colon cancer cells” (PLoS ONE, 2019)

Target: T1, human Arnt fused to Gal4 DNA-binding domain in pGBKT7 (human, UniProt P27540 1-789)
T1 construct: Arnt, human cDNA; This fusion alone induces the reporter; also called pGBK-Arnt; source: yeast two-hybrid fusion, yeast strain Y187
Experiment: two-hybrid; yeast two-hybrid in strain Y187, pGADT7 and pGBKT7 fusions, 1 μM 3MC or 0.1% DMSO for 12 h at 30°C, β-galactosidase read-out (o-nitrophenol-β-D-galactopyranoside); DDB1 or CUL4B co-expressed from pESC in some samples
Settings: partners not purified

T1 sequence (P27540 whole entry, the tested form may be a part): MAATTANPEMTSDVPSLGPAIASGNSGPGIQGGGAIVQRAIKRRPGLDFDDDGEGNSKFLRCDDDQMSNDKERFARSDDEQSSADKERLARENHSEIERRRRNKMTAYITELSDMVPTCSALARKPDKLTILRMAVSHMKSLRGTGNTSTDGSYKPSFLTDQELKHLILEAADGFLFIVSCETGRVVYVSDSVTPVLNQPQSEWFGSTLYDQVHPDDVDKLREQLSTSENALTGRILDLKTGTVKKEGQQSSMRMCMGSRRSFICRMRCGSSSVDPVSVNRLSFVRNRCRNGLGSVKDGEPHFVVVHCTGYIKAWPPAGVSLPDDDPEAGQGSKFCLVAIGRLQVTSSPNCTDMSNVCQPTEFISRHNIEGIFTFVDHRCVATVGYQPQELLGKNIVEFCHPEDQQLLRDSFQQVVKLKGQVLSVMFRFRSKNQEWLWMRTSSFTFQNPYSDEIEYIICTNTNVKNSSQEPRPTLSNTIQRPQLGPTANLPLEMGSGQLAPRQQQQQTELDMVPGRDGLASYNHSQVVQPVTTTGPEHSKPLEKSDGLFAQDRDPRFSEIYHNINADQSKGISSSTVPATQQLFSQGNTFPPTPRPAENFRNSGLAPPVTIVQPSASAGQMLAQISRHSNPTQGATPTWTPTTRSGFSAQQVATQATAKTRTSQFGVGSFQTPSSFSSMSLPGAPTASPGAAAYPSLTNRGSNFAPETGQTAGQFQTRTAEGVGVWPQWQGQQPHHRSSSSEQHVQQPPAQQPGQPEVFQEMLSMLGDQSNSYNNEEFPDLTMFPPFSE

B1: human AhR fused to Gal4 activating domain in pGADT7 (natural protein, UniProt P35869 1-848, looked up)
chain: MNSSSANITYASRKRRKPVQKTVKPIPAEGIKSNPSKRHRDRLNTELDRLASLLPFPQDVINKLDKLSVLRLSVSYLRAKSFFDVALKSSPTERNGGQDNCRAANFREGLNLQEGEFLLQALNGFVLVVTTDALVFYASSTIQDYLGFQQSDVIHQSVYELIHTEDRAEFQRQLHWALNPSQCTESGQGIEEATGLPQTVVCYNPDQIPPENSPLMERCFICRLRCLLDNSSGFLAMNFQGKLKYLHGQKKKGKDGSILPPQLALFAIATPLQPPSILEIRTKNFIFRTKHKLDFTPIGCDAKGRIVLGYTEAELCTRGSGYQFIHAADMLYCAESHIRMIKTGESGMIVFRLLTKNNRWTWVQSNARLLYKNGRPDYIIVTQRPLTDEEGTEHLRKRNTKLPFMFTTGEAVLYEATNPFPAIMDPLPLRTKNGTSGKDSATTSTLSKDSLNPSSLLAAMMQQDESIYLYPASSTSSTAPFENNFFNESMNECRNWQDNTAPMGNDTILKHEQIDQPQDVNSFAGGHPGLFQDSKNSDLYSIMKNLGIDFEDIRHMQNEKFFRNDFSGEVDFRDIDLTDEILTYVQDSLSKSPFIPSDYQQQQSLALNSSCMVQEHLHLEQQQQHHQKQVVVEPQQQLCQKMKHMQVNGMFENWNSNQFVPFNCPQQDPQQYNVFTDLHGISQEFPYKSEMDSMPYTQNFISCNQPVLPQHSKCTELDYPMGSFEPSPYPTTSSLEDFVTCLQLPENQKHGLNPQSAIITPQTCYAGAVSMYQCQPEPQHTHVGQMQYNPVLPGQQAFLNKFQNGVLNETYPAELNNINNTQTTTHLQPLHHPSEARPFPDLTSSGFL
notes: aryl-hydrocarbon receptor (AhR), human cDNA; also called pGAD-AhR; aryl-hydrocarbon receptor; source: yeast two-hybrid fusion, yeast strain Y187
- fold increase of two-hybrid reporter activity over pGBK-Arnt alone: ~3 fold
